The values below come from PMC3695512, “Recognition of two distinct elements in the RNA substrate by the RNA-binding domain of the T. thermophilus DEAD box helicase Hera”.

Numbering of substitutions follows the chain as printed.

For data set [1], the target named is T1, Hera_RBD R492A (Thermus thermophilus, UniProt O07897 424-510, R492A).
T1 sequence: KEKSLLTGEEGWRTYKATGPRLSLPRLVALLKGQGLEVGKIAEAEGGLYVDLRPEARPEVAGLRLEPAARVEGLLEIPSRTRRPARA
The experiment in a line: fluorescence anisotropy; 5 mM Mg2+; Anisotropy: 50 mM Tris/HCl pH 7.5, 150 mM NaCl, 5 mM MgCl2 (Fig 2), 25 C, 50 nM RNA; EMSA: same Tris/NaCl, 12% glycerol, 25 C; NMR: 25 mM Bis-Tris/HCl pH 6.0, 50 mM NaCl, 10% D2O, 37 C. The note with it: protein: recombinant; label: 5'-fluorescein; hairpin with 5' single strand. A general note: Fluorescence polarisation rises when a labelled molecule tumbles more slowly, as on binding a larger partner.

In data set [2] the target is T2, Hera_RBD G462C (Thermus thermophilus, UniProt O07897 424-510, G462C).
T2 sequence: T1 sequence with G39C, A69R
As to the kind of experiment: fluorescence anisotropy; 5 mM Mg2+; negligible effect; Anisotropy: 50 mM Tris/HCl pH 7.5, 150 mM NaCl, 5 mM MgCl2 (Fig 2), 25 C, 50 nM RNA; EMSA: same Tris/NaCl, 12% glycerol, 25 C; NMR: 25 mM Bis-Tris/HCl pH 6.0, 50 mM NaCl, 10% D2O, 37 C. The following applies: protein: recombinant; label: 5'-fluorescein; hairpin with 5' single strand.

In data set [3] the target is T3, GST-Hera_RBD (Thermus thermophilus, UniProt O07897 424-510).
T3 sequence: T1 sequence with A69R
The experiment in a line: EMSA; 6 uM RNA; 12% glycerol; Anisotropy: 50 mM Tris/HCl pH 7.5, 150 mM NaCl, 5 mM MgCl2 (Fig 2), 25 C, 50 nM RNA; EMSA: same Tris/NaCl, 12% glycerol, 25 C; NMR: 25 mM Bis-Tris/HCl pH 6.0, 50 mM NaCl, 10% D2O, 37 C. The note with it: protein: recombinant; tags: N-terminal GST; label: 5'-fluorescein; hairpin with 5' single strand. Background: In EMSA bound probe runs differently from free probe, usually more slowly.

In data set [4] the target is T4, Hera full-length (Thermus thermophilus, UniProt O07897 1-510).
T4 sequence: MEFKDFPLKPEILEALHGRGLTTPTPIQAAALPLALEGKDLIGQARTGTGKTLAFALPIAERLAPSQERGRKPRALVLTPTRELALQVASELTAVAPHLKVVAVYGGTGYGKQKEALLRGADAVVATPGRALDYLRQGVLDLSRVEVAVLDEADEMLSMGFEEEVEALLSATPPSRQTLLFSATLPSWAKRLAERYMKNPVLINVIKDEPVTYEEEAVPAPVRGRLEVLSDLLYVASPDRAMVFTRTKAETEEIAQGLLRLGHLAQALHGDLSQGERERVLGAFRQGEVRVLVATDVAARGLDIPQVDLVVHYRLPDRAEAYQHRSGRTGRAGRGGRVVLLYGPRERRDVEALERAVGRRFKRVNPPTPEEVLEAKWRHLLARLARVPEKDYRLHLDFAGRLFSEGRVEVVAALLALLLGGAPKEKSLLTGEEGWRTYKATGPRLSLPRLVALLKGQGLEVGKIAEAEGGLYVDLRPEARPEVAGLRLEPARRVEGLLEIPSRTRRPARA
As to the kind of experiment: fluorescence anisotropy; no ATP; 5 mM Mg2+; Anisotropy: 50 mM Tris/HCl pH 7.5, 150 mM NaCl, 5 mM MgCl2 (Fig 2), 25 C, 50 nM RNA; EMSA: same Tris/NaCl, 12% glycerol, 25 C; NMR: 25 mM Bis-Tris/HCl pH 6.0, 50 mM NaCl, 10% D2O, 37 C. The note with it: protein: recombinant; chain copies: 2; label: 5'-fluorescein; hairpin with 5' single strand.

In data set [5] the target is T3, GST-Hera_RBD. Described as above. The note with it: protein: recombinant; tags: N-terminal GST; label: 5'-fluorescein; hairpin with 5' single strand.
For data set [6], the target named is T5, Hera_core (Thermus thermophilus, UniProt O07897 1-369).
T5 sequence: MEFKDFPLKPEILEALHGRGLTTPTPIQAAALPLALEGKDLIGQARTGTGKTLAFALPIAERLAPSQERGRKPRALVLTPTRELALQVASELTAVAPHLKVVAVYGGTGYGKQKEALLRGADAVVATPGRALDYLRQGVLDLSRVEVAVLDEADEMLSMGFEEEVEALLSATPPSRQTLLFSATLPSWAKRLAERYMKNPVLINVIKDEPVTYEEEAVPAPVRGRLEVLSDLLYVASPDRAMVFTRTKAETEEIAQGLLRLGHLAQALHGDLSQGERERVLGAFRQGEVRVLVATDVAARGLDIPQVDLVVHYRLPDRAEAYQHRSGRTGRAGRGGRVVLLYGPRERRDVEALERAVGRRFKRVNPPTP
The description is as above. The following applies: protein: recombinant; label: 5'-fluorescein; hairpin with 5' single strand.

Data set [7] concerns the target T6, Hera_RBD A452C (Thermus thermophilus, UniProt O07897 424-510, A452C).
T6 sequence: T1 sequence with A29C, A69R
The experiment in a line: fluorescence anisotropy; 5 mM Mg2+; Anisotropy: 50 mM Tris/HCl pH 7.5, 150 mM NaCl, 5 mM MgCl2 (Fig 2), 25 C, 50 nM RNA; EMSA: same Tris/NaCl, 12% glycerol, 25 C; NMR: 25 mM Bis-Tris/HCl pH 6.0, 50 mM NaCl, 10% D2O, 37 C. The note with it: protein: recombinant; label: 5'-fluorescein; hairpin with 5' single strand.

For GCAGGUCCCAAGGGUUGGGCUGUUCGCCCAUU (structured_RNA) [32mer], the binding signal in data set [1] is less than 5 fold Kd increase; in data set [2] it was less than 5 fold Kd increase; in data set [7], approximately 10 fold Kd increase. Further, the Kd – broadly, the equilibrium constant for the complex coming apart – was approximately 7000 nM in data set [3], 130 ± 70 nM in data set [4], 450 ± 36 nM in data set [5] and 1000 ± 180 nM in data set [6].
